Reference: publication PMC10808114, “Yeast 26S proteasome nuclear import is coupled to nucleus-specific degradation of the karyopherin adaptor protein Sts1” (Scientific Reports, 2024)

T1: GST-cleaved Kap95 (S. cerevisiae, UniProt Q06142 1-861)
T1 construct: Kap95 (karyopherin-beta), S. cerevisiae; also called purified Kap95; untagged Kap95; source: recombinant, purified, GST cleaved
T1 sequence (looked up): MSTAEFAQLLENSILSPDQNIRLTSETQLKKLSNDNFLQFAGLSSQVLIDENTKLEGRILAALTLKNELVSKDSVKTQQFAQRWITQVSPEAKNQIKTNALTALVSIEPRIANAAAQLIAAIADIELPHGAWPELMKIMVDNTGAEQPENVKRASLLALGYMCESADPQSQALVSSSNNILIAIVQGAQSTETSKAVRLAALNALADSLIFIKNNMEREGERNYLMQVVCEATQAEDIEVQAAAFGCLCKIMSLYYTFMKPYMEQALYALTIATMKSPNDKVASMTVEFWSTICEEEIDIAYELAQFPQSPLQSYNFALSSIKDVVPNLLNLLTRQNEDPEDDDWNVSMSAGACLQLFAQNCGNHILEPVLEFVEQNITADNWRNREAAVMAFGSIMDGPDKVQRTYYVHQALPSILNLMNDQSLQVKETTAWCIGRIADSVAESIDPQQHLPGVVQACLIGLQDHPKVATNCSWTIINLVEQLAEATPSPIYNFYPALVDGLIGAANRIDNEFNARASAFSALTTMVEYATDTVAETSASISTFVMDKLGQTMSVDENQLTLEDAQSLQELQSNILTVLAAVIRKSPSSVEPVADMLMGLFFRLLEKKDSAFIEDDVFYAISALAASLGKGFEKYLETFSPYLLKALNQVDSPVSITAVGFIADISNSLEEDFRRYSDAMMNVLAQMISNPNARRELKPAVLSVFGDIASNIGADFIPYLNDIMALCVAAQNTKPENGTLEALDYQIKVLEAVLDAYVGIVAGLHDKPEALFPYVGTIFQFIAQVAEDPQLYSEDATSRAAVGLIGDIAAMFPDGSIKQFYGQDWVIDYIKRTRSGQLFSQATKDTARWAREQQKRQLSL

B1: Srp1-6His (natural protein, S. cerevisiae, UniProt Q02821 1-542, looked up)
chain: MDNGTDSSTSKFVPEYRRTNFKNKGRFSADELRRRRDTQQVELRKAKRDEALAKRRNFIPPTDGADSDEEDESSVSADQQFYSQLQQELPQMTQQLNSDDMQEQLSATVKFRQILSREHRPPIDVVIQAGVVPRLVEFMRENQPEMLQLEAAWALTNIASGTSAQTKVVVDADAVPLFIQLLYTGSVEVKEQAIWALGNVAGDSTDYRDYVLQCNAMEPILGLFNSNKPSLIRTATWTLSNLCRGKKPQPDWSVVSQALPTLAKLIYSMDTETLVDACWAISYLSDGPQEAIQAVIDVRIPKRLVELLSHESTLVQTPALRAVGNIVTGNDLQTQVVINAGVLPALRLLLSSPKENIKKEACWTISNITAGNTEQIQAVIDANLIPPLVKLLEVAEYKTKKEACWAISNASSGGLQRPDIIRYLVSQGCIKPLCDLLEIADNRIIEVTLDALENILKMGEADKEARGLNINENADFIEKAGGMEKIFNCQQNENDKIYEKAYKIIETYFGEEEDAVDETMAPQNAGNTFGFGSNVNQQFNFN
notes: Srp1 (Kap60, karyopherin-alpha), S. cerevisiae; pET42b-based plasmid; also called karyopherin-α; Kap60; source: also co-expressed with GST-Sts1 in E. coli extract; not shown: 6His, C-terminal, kept

How the values were obtained:
[1] = target: T1, GST-cleaved Kap95; assay: pull-down; GST-Sts1 immobilised on GSH beads, incubated with equimolar Srp1-6His and GST-cleaved Kap95, 4 °C, 2 h; PBS, 0.1% Tween-20, 0.2 mM DTT, 0.2 mM PMSF; without Ran or then with four-fold molar excess of 6His-Gsp1GDP (complex largely intact); SDS-PAGE and protein staining; details: both partners purified
[2] = target: B1; assay: as above; details: both partners purified

Row | Binder | binding result [1] | binding result [2]
1 | B1 | binds | 
2 | full-length GST-Sts1 (natural protein, S. cerevisiae, UniProt P38637 1-319, looked up, Sts1, S. cerevisiae, full length; also called FL; not shown: GST, N-terminal, kept) MMGFEWGFKPSSKITQSTVSSQGTGNVMIPTAGVKQKRRYANEEQEEEELPRNKNVMKYGGVSKRRPQPGSLIRGQPLPLQRGMELMNKNQLQQLLVDLMTKHPEIQQSVHTRVIGLDFSIQKCLDMLKQKSEAVYQSIPYNRSYESNKLDDYAFVRMKPQILEFLNCLVDFILDNIPPRLENLHASLKFLDICTELVIKLPRFELASNNYYYDKCIEQLSHVWCTLIEHVARDRIILLADNSSVWKSHMTRLQVYNEHSNGLLERPLQLFKSLDMGSPSAASSSTLSLQESIIYHHDTMTANENNNNSGSAATDSPFN | binds | binds
